# Results taken from the nanobody polyreactivity screen of Harvey et al. (2022).
# Assay: yeast display, Sf9 membrane polyspecificity reagent, FACS + sequencing; frameworks hold sequencing errors
# Procedure, shortened: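 Galactose induction of a Saccharomyces cerevisiae BJ5465 synthetic nanobody display library ran 36–48 hours. The cells were then stained for 1 hour at 4 °C with 10% biotinylated, detergent-solubilized Sf9 membrane reagent, pulled down on streptavidin microbeads and FACS-sorted into low and high (top ~1%) gates on expression and reagent-binding fluorescence. Labels for polyreactivity follow the gate of origin.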
row,Sequence,polyreactivity (PSR sort gate)
1,QVQLVESGGGLVQAGGSLRLSCAASGSTFGGYVMGWYRQAPGKERELVATITQGDGSTYYADSVKGRFTISRDNAKNTVYLQMNSLKPEDTAVYYCAAYGWYDLYYWEYDYWGQGTQVTVSS,high polyreactivity
2,QVQLVESGGGLVQAGGSLRLSCAASGSTFGHYAMGWYRQAPGKERELVAAISWSGGSTSYADSVKGRFTISRDNAKNTVYLQMNSLKPEDTAVYYCNKRQEWFHFPYTRVYYWGQGTQLTVSS,low polyreactivity
3,QVQLVESGGGLVQAGGSLRLSCAASGSTFGHYAMGWYRQAPGKERELVAAITWSGGSTYYADSVKGRFTISRDNAKNTVYLQMNSLKPEDTAVYYCNAVTRRSAQVGHDYWGQGTQVTVSS,high polyreactivity
4,QVQLVESGGGLVQAGGSLRLSCAASGSTFGHYAMGWYRQAPGKERELVAGITDTDNHELRRLCEGRFTISRDNAKNTVYLQMTSLKPEDTAVYYCNADDTYYPLGGITGYDYWGQGTQVTVSS,low polyreactivity
5,QVQLVESGGGLVQAGGSLRLSCAASGSTFGHYAMGWYRQAPGKERELVAGITYTDNHELRRLCEGRFTISRDNAKNTVYLQMNSLKPEDTAVYYCNADDTYYPLGGITGYDYWGQGTQVTVSS,low polyreactivity
6,QVQLVESGGGLVQAGGSLRLSCAASGSTFGIYAMGWYRPAPGKERELVAAISSGGSTNYADSVKGRFTISRDNAKNTVYLQMNCLKPEDSAVYYCAVESVYEYGGYVDSAYDYWGQGTQVTVSS,low polyreactivity
7,QVQLVESGGGLVQAGGSLRLSCAASGSTFGIYVMGWYRQAPGKERELVATISSSGGRTYYADSVKGRFTISRDNAKNTVYLQMNSLKPEDTAVYYCAADGYIDISPGYYYTYDYWGQGTQVTVSS,low polyreactivity
8,QVQLVESGGGLVQAGGSLRLSCAASGSTFGKNAMGWYRQAPGKERELVAAITRRGGSTNYADSVKGRFTISRDNAKNTVYLQINSLKPEDTAVYYCAASWGRTSSKPFDYWGQGTQVTVSS,high polyreactivity
9,QVQLVESGGGLVQAGGSLRLSCAASGSTFGLNALGWYRQAPGKERELVAAISTSGGSTYYADSVKGRFTISRDNAKNTVFLQMNSLNPEDTAVYYCAADVVAGYDYSQYYYWGQGTQVTVSS,low polyreactivity
10,QVQLVESGGGLVQAGGSLRLSCAASGSTFGLNAMGWYRQAPGKERELVAAISTSGGSTYYADSVKGRFTISRDNAKNTVYLQMNSLKPEDTAVYYCAAEVVAGYDYSQYYYWGQGTQVTVSS,low polyreactivity
11,QVQLVESGGGLVQAGGSLRLSCAASGSTFGLYAMGWYRQAPGKERELVADITWSGGSTYYADSVKGRFTISRDNAKNTVYLQMNSLKPEDTAVYYCAARYPWVYYDFDYWGQGTQVTVSS,low polyreactivity
12,QVQLVESGGGLVQAGGSLRLSCAASGSTFGNAMGWYTQAPGKEREWVAAISSRGDRTYYADSVKGRFTISRDNAKNTGYLQMNSLKPEDTAVYYCAKDGYPNKYDYWGQGTQVTVSS,high polyreactivity
13,QVQLVESGGGLVQAGGSLRLSCAASGSTFGNNAMGLYRQAPGKERELVASINWNGGSTYYADSVKGRFTISRDNAKITVYLQMNSLKPEDTAVYYCNARLYFVEGQDYYYWGQGTQVTVSS,low polyreactivity
14,QVQLVESGGGLVQAGGSLRLSCAASGSTFGNNAMGWYRQAPGKERELVASISWSSGRTYYADSVKGRFTISRDNAKNTVYLQMNSLKREDTAVYYCAAPLPVDVVWDRSAEVRYDYWGQGTQVTVSS,low polyreactivity
15,QVQLVESGGGLVQAGGSLRLSCAASGSTFGPNTMGWYRQAPGKERELVAAITTRGGRTYYADSVKGRFTISRDNAKNTVYLQMNSLKPEDTAVYYCAASAPYYGRGGLVGYWGQGTQVTVSS,high polyreactivity
16,QVQLVESGGGLVQAGGSLRLSCAASGSTFGPYAMGWYRQAPGKERELVATINSSGSTNYADSVKGRFTISRDNAKNTVYLQMNSLKPEDTAVYYCATLHYYYWYDYWGQGTQVTVSS,low polyreactivity
17,QVQLVESGGGLVQAGGSLRLSCAASGSTFGQYAMGWYRQAPGKERELVAAISRNGGRTYYADSVKGRFTISRDNAKNTVYLLMNSLKPEDTAVYYCAAGGFLYVYYRGMYYWGQGTQVTVSS,high polyreactivity
18,QVQLVESGGGLVQAGGSLRLSCAASGSTFGRNAMGWYRQAPGKERELVAAINWSDGSTHYADSVKGRFTISRDNAKNTVYLQMNSLKPEDTAVYYCAADAWSWPVDYNYWGQGTQVTVSS,low polyreactivity
19,QVQLVESGGGLVQAGGSLRLSCAASGSTFGRNAMGWYRQAPGKERELVASISRRGGSTYYADSVKGRFTISRDNAKNTVYLQMNSLKPEDTAVYYCNARYYFSDYGYWGQGTQVTVSS,high polyreactivity
20,QVQLVESGGGLVQAGGSLRLSCAASGSTFGRNAMGWYRQAPGKERELVASISWGGGSTYYADSVKVRFTISRDNAKNNVYLQMNSLKPEDTAVYYCAAGLAYWYWRGYDYWGQGTQVTVSS,high polyreactivity
21,QVQLVESGGGLVQAGGSLRLSCAASGSTFGRYAMGWYRQAPGKERELVAAISASGGSTYYADSVKGRFTISRDNAKNTVYLLMNSLKPEDTAVYYSAALIDVITGQYDYWGQGTQVTVSS,high polyreactivity
22,QVQLVESGGGLVQAGGSLRLSCAASGSTFGRYAMGWYRQAPGKERELVAAISPRGGSTYYADSVKGRFTISRDNAKNTVYLQMNSLKPEDTAVYYCATGYPIDLGREFDYWGQGIQVTVSS,high polyreactivity

row,Sequence,polyreactivity (PSR sort gate)
1,QVQLVESGGGLVQAGGSLRLSCAASGSTFGRYAMGWYRQAPGKERELVAAISWSGGSTHYADSVKGRFTISRDNAKNTVYLQMNSLKPEDTAVYYCAAYTFYSYDYWGQGSQVTVSS,high polyreactivity
2,QVQLVESGGGLVQAGGSLRLSCAASGSTFGRYAMGWYRQAPGKERELVAAITSDTGNTNYADSVKGRFTISRDNAKNTVYLQMNSLKPEDTAVYYCAAATFWVLWGHVIGNYDSWGQGTQVTVSS,low polyreactivity
3,QVQLVESGGGLVQAGGSLRLSCAASGSTFGRYAMGWYRQAPGKERELVAGISRGGTTYYADSVKGRFTISRDNAKNTVYLQLNSLKPEDTAVYYCAKLRWPVFDYWGQGTQVTVSS,high polyreactivity
4,QVQLVESGGGLVQAGGSLRLSCAASGSTFGRYAMGWYRQAPGKERELVARISWGGGSTYYADSVKGRFTISRDNAKNTVYLQMNSLKPEDTAVYYCATRVYRSAVSYDYWGQGTQVTVSS,high polyreactivity
5,QVQLVESGGGLVQAGGSLRLSCAASGSTFGRYVMGWYRQAPGKDRELVAAISKNAGSTYYADSVKGRFTISRDNAKNTVYLQMNSLKPEDTAVYYCAADWRTKGYDSLGQGTQVTVSS,high polyreactivity
6,QVQLVESGGGLVQAGGSLRLSCAASGSTFGSNAMGWYRPAPGKERELVAAITYSGGRTYYADSVKGRFTISRDNAKNTVYLQMNSLKPEDTAVYYCAATFGFFYYQYDYWGQGTQVTVSS,low polyreactivity
7,QVQLVESGGGLVQAGGSLRLSCAASGSTFGSYAMGWYRQAAGKERELVAGNSWSGGRTYYADSVKGRFTISRDNAKNTVYLQMNSLKPEDTAVYYCARDTGYYYARYNYWGQGTQVTVSS,low polyreactivity
8,QVQLVESGGGLVQAGGSLRLSCAASGSTFGSYAMGWYRQAPGKERELVAAITASGGSTYYADSVKGRFTISRDNAKNTGYLQMNSLKPEDTAVYYCATRWFAFPWDEYNYWGQGTQVTVSS,low polyreactivity
9,QVQLVESGGGLVQAGGSLRLSCAASGSTFGSYAMGWYRQAPGKERELVADISSRGASTYYADSVKGRFTISRDNAKNTVYFQMNSLKPEDTAVYYCARDVYIWYGYGYFPEYEYWGQGTQVTVSS,low polyreactivity
10,QVQLVESGGGLVQAGGSLRLSCAASGSTFGSYAMGWYRQAPGKERELVAGISWSGGRTYYADSVKGRFTISRDNAKNTVYLQMNSLKPEDTAVYYRARDTGYYYARYNYWGQGTQVTVSS,low polyreactivity
11,QVQLVESGGGLVQAGGSLRLSCAASGSTFGSYAMGWYRQAPGKERELVAVITGGGDTNYADSVKGRFTISRDNAKNTVYLQMNSLKPEDTAVYYCAAEGSFYRYHVGSDYWGQGTQLTVSS,low polyreactivity
12,QVQLVESGGGLVQAGGSLRLSCAASGSTFGSYGMGGYRQAPGKERELVAGITSSGSTYYADSVKGRFTISRDNAKNTVYLQMNSLKPDDTAVYYCNARSGIDWYYDNDYWGQGTQVTVSS,low polyreactivity
13,QVQLVESGGGLVQAGGSLRLSCAASGSTFGSYGMGWYRQSPGKERELVAGITSAGSTYYADSVKGRFTISRDNAKNTVYLQMNSLKPEDTAVYYCNARSGIVWYYDNDYWGQGTQVTVSS,low polyreactivity
14,QVQLVESGGGLVQAGGSLRLSCAASGSTFGTYAMGWYRQAPGKERELVAAISNSGGSTYYADSVKGRFTISRDNAKNTVYLQMNSLKPEDTAVYYCNTDGLVRNGPFYSWGQGTQVTVSS,low polyreactivity
15,QVQLVESGGGLVQAGGSLRLSCAASGSTFGTYGMGWSRQAPGKERESVADITSGGSTYYADSVKGRFTISRDNAKNTVYLQMNSLKPEDTAVYSCAASWFVWSTAVPYDYWGQGTQVTVSS,low polyreactivity
16,QVQLVESGGGLVQAGGSLRLSCAASGSTFGVNDMGWYRQAPWKERELVAAISRGAITNYADSVKGRFTISRDNAKNTVYLQMNSLKPEDTAVYYCAAGFVTYYVPQYKEYGYDYWGQGTQVTVSS,low polyreactivity
17,QVQLVESGGGLVQAGGSLRLSCAASGSTFGVYAMGWYRPAPGKERELVAAIRWSGGGTYYADSVKGRFTISRDNAKNTVYLQMNSLKPEDTAVYYCNTDILSIYAEPYYFTDVDYWGQGTQVTVSS,low polyreactivity
18,QVQLVESGGGLVQAGGSLRLSCAASGSTFGVYAMGWYRQAPGKERELVASITSGTSTYADSVKGRFTISRDNAKNTVYLQMNSLKPEDTAVYYCAAEYLYFNLGYDYWGQGTQVTVSS,low polyreactivity
19,QVQLVESGGGLVQAGGSLRLSCAASGSTFGWYAMGWYRQAPGIERELVATITSDSSTYYADSVKGRFTISRDNAKNTVYLQMNSLKPQDTAVYYCAATNYWIEYAPGYGLYSVEDDYWGQGTQVTVSS,low polyreactivity
20,QVQLVESGGGLVQAGGSLRLSCAASGSTFGWYAMGWYRQAPGKERELVAAINSSGDRTYYADSVKGRFTISRDNAKINVYLQMNSLKPEDTAVYYCAATYWARNWRYDYWGQGTQVTVSS,high polyreactivity
21,QVQLVESGGGLVQAGGSLRLSCAASGSTFGWYAMGWYRQAPGKERELVAAIRRTGSTYYADSVKGRFTISRDNAKNTVYLQMNSLKPEDTAVYYCNAKYPLYLTGYDYWGQGTQVTVSS,low polyreactivity
